The results in this text go back to publication PMC8716364, “A Redox-Sensitive Cysteine Is Required for PIN1At Function” (Frontiers in Plant Science, 2021).

Data set [1] addresses Cys69 (UniProt position 69, TRVSDCSSAKR). Nature of the data set: chemical modification. The following applies: 25 °C; sodium citrate or phosphate buffer (concentration not stated); reduced (DTT-treated and desalted), free enzyme, monomer.
Data set [2] deals with the molecule itself. The data set is described as follows: non-reducing SDS-PAGE after alkylation with mPEG-maleimide; 20 μM reduced PIN1At with 25- or 100-fold excess H2O2 (500 μM or 2 mM), 30 min, TE buffer; one sample then 10 mM DTT 30 min; free thiols alkylated with 2 kDa mPEG-maleimide, non-reducing 15% SDS-PAGE.
Data set [3] deals with the molecule itself. The data set is described as follows: SEC-MALS; 76 μM (300 μg) reduced PIN1At incubated 30 min with 100 μM to 2.5 mM H2O2, 30 mM Tris-HCl pH 8.0, 200 mM NaCl, Superdex200 10/300; disulfide-bridged dimer.

As to “PIN1At (PAR1), peptidyl-prolyl cis-trans isomerase Pin1, single-domain parvulin (Arabidopsis thaliana)”, in data set [1], the pKa is on record as 4.9±0.1.

B1: Arabidopsis PIN1At, N-terminal His-tagged recombinant protein (enzyme, Arabidopsis thaliana, UniProt Q9SL42 1-119, looked up)
chain: MASRDQVKASHILIKHQGSRRKASWKDPEGKIILTTTREAAVEQLKSIREDIVSGKANFEEVATRVSDCSSAKRGGDLGSFGRGQMQKPFEEATYALKVGDISDIVDTDSGVHIIKRTA
notes: also called His-tagged PIN1At; not shown: His6, N-terminal, kept
For B1, the binding result in data set [2] was “binds”.

B2: Arabidopsis PIN1At, untagged recombinant protein (enzyme, Arabidopsis thaliana, UniProt Q9SL42 2-119, looked up)
chain: ASRDQVKASHILIKHQGSRRKASWKDPEGKIILTTTREAAVEQLKSIREDIVSGKANFEEVATRVSDCSSAKRGGDLGSFGRGQMQKPFEEATYALKVGDISDIVDTDSGVHIIKRTA
notes: Single cysteine, Cys69; the printed masses (12.3 kDa, 12,882.7 Da; theoretical 13,014.7 Da) fit the untagged protein; also called PAR1; PIN1At/PAR1; source: E. coli BL21 (DE3) with pSBET, pET12a, purified (ammonium sulfate, ACA44 gel filtration, DEAE-Sephacel)
Regarding B2, the “stoichiometry N” value in data set [3] is 2.
